Test results published in IntAct's records for PubMed 20010802.

Molecular target: mlp3a_human MAP1LC3A (UniProt Q9H492)

BCL2/adenovirus E1B 19 kDa protein-interacting protein 3-like (Mus musculus), Q9Z2F7 L38A
effect of a mutation on the interaction: disrupting interaction
